Test results: PMC4866044

Columns and labels:
[1] = target: HA-RanBP2 mFG1/2, full-length (human) (UniProt P49792); experiment: co-IP; αHA-agarose immunoprecipitation from nocodazole-arrested HEK293T cells depleted of endogenous RanBP2 by siRNA and transfected with HA-RanBP2 constructs; Crm1 blot normalised to HA-RanBP2, three biological replicates
Cy3-labelled Crm1 = Cy3-labelled Crm1 (UniProt O14980); experiment: MST; conditions: Cy3-labelled Crm1 20 nM; RanBP2-3/4 fragments 0.3 nM-10 μM; no RanQ69L; laser-power 70%, LED-power 20%; parent: est. 0.94; read off a plot

reduction of co-immunoprecipitated Crm1 against wild-type HA-RanBP2 [1]	other: fraction of bound Crm1-Cy3 at the highest RanBP2-3/4 concentration (10,000 nM) (Cy3-labelled Crm1)	Substance
40%		Crm1, endogenous (HEK293T) (from UniProt O14980 1-1071) (natural protein)
	0.04	RanBP2-3/4-His (aa 2,304–3,062), free fragment (from UniProt P49792) mFG12 (= mFG1/2, 11 F to S mutations in both FG-repeat patches; positions not printed)
